Assay results: paper PMC5715097

Biological target: Sulfolobus solfataricus RNA polymerase (S. solfataricus)

transcription elongation assay on a synthetic scaffold: excess of TFS1 over TFS4 needed for 50% relief of the inhibition by TFS4 (fold excess of TFS1 over TFS4): 2
Substance: Sulfolobus solfataricus TFS4 (from UniProt Q97X43 1-92) (natural protein)
